*: point of attachment. FITC = O=C1OC2(c3ccc(O)cc3Oc3cc(O)ccc32)c2ccc(NC(=S)*)cc21; βAla = NCCC(=O)O
Target: T1, FITC-MLL peptide (SMILES …)
T1 peptide: {FITC-βAla}-DAGNILPSDIMDFVLKNTP-NH2
Assay: fluorescence polarisation

B1: GACKIX N627C (GACKIX domain of mouse CBP, residues 586–672, N627C mutant), unlabeled (domain or fragment)
chain: not shown
  binding result: binds

Reference: PMC10900128 (Chembiochem : a European journal of chemical biology, 2018)
